In PMC12592476 (2025):

B1: human Coro7 β2 (domain or fragment)
chain: KFRHAQGTVLHRDSHITNLKGLNLTTPGESDGFCANKLRVAVPLLSSGGQVAVLELRKPGRLPDTALPTLQNGAAVTDLAWDPFDPHRLAVAGEDARIRLWRVPAEGLEEVLTTPETVLTGHTEKICSLRFHPLAANVLASSSYDLTVRIWDLQAGADRLKLQGHQDQIFSLAWSPDGQQLATVCKDGRVRVYRPRSGPEPLQEGPGPKGGRGARIVWVCDGRCLLVSGFDSQSERQLLLYEAEALAGGPLAVLGLDVAPSTLLPSYDPDTGLVLLTGKGDTRVFLYELLPESPFFLECNSFTSPDPHKGLVLLPKTECDVREVELMRCLRLRQSSLEPVAFRLPRVRKEFFQDDVFPDTAVIWEPVLSAEAWLQGANGQPWLLSLQPPDMS
B2: human Coro7 β1β2 (domain or fragment)
chain: MNRFRVSKFRHTEARPPRRESWISDIRAGTAPSCRNHIKSSCSLIAFNSDRPGVLGIVPLQGQGEDKRRVAHLGCHSDLVTDLDFSPFDDFLLATGSADRTVKLWRLPGPGQALPSAPGVVLGPEDLPVEVLQFHPTSDGILVSAAGTTVKVWDAAKQQPLTELAAHGDLVQSAVWSRDGALVGTACKDKQLRIFDPRTKPRASQSTQAHENSRDSRLAWMGTWEHLVSTGFNQMREREVKLWDTRFFSSALASLTLDTSLGCLVPLLDPDSGLLVLAGKGERQLYCYEVVPQQPALSPVTQCVLESVLRGAALVPRQALAVMSCEVLRVLQLSDTAIVPIGYHVPRKAVEFHEDLFPDTAGCVPATDPHSWWAGDNQQVQKVSLNPACRPHPSFTSCLVPPAEPLPDTAQPAVMETPVGDADASEGFSSPPSSLTSPSTPSSLGPSLSSTSGIGTSPSLRSLQSLLGPSSKFRHAQGTVLHRDSHITNLKGLNLTTPGESDGFCANKLRVAVPLLSSGGQVAVLELRKPGRLPDTALPTLQNGAAVTDLAWDPFDPHRLAVAGEDARIRLWRVPAEGLEEVLTTPETVLTGHTEKICSLRFHPLAANVLASSSYDLTVRIWDLQAGADRLKLQGHQDQIFSLAWSPDGQQLATVCKDGRVRVYRPRSGPEPLQEGPGPKGGRGARIVWVCDGRCLLVSGFDSQSERQLLLYEAEALAGGPLAVLGLDVAPSTLLPSYDPDTGLVLLTGKGDTRVFLYELLPESPFFLECNSFTSPDPHKGLVLLPKTECDVREVELMRCLRLRQSSLEPVAFRLPRVRKEFFQDDVFPDTAVIWEPVLSAEAWLQGANGQPWLLSLQPPDMS
B3: human Coro7 CA (C-terminal Central-Acidic region of coronin 7) (domain or fragment)
chain: SDQQKKEELLNAMVAKLGNREDPLPQDSFEGVDEDEWD
B4: human Coro7 full length (Coro7 FL) (natural protein)
chain: MNRFRVSKFRHTEARPPRRESWISDIRAGTAPSCRNHIKSSCSLIAFNSDRPGVLGIVPLQGQGEDKRRVAHLGCHSDLVTDLDFSPFDDFLLATGSADRTVKLWRLPGPGQALPSAPGVVLGPEDLPVEVLQFHPTSDGILVSAAGTTVKVWDAAKQQPLTELAAHGDLVQSAVWSRDGALVGTACKDKQLRIFDPRTKPRASQSTQAHENSRDSRLAWMGTWEHLVSTGFNQMREREVKLWDTRFFSSALASLTLDTSLGCLVPLLDPDSGLLVLAGKGERQLYCYEVVPQQPALSPVTQCVLESVLRGAALVPRQALAVMSCEVLRVLQLSDTAIVPIGYHVPRKAVEFHEDLFPDTAGCVPATDPHSWWAGDNQQVQKVSLNPACRPHPSFTSCLVPPAEPLPDTAQPAVMETPVGDADASEGFSSPPSSLTSPSTPSSLGPSLSSTSGIGTSPSLRSLQSLLGPSSKFRHAQGTVLHRDSHITNLKGLNLTTPGESDGFCANKLRVAVPLLSSGGQVAVLELRKPGRLPDTALPTLQNGAAVTDLAWDPFDPHRLAVAGEDARIRLWRVPAEGLEEVLTTPETVLTGHTEKICSLRFHPLAANVLASSSYDLTVRIWDLQAGADRLKLQGHQDQIFSLAWSPDGQQLATVCKDGRVRVYRPRSGPEPLQEGPGPKGGRGARIVWVCDGRCLLVSGFDSQSERQLLLYEAEALAGGPLAVLGLDVAPSTLLPSYDPDTGLVLLTGKGDTRVFLYELLPESPFFLECNSFTSPDPHKGLVLLPKTECDVREVELMRCLRLRQSSLEPVAFRLPRVRKEFFQDDVFPDTAVIWEPVLSAEAWLQGANGQPWLLSLQPPDMSPVSQAPREAPARRAPSSAQYLEEKSDQQKKEELLNAMVAKLGNREDPLPQDSFEGVDEDEWD
B5: human Coro7 β1 (domain or fragment)
chain: MNRFRVSKFRHTEARPPRRESWISDIRAGTAPSCRNHIKSSCSLIAFNSDRPGVLGIVPLQGQGEDKRRVAHLGCHSDLVTDLDFSPFDDFLLATGSADRTVKLWRLPGPGQALPSAPGVVLGPEDLPVEVLQFHPTSDGILVSAAGTTVKVWDAAKQQPLTELAAHGDLVQSAVWSRDGALVGTACKDKQLRIFDPRTKPRASQSTQAHENSRDSRLAWMGTWEHLVSTGFNQMREREVKLWDTRFFSSALASLTLDTSLGCLVPLLDPDSGLLVLAGKGERQLYCYEVVPQQPALSPVTQCVLESVLRGAALVPRQALAVMSCEVLRVLQLSDTAIVPIGYHVPRKAVEFHEDLFPDTAGCVPATDPHSWWAGDNQQVQKVSLNPACRPHPSFTSCLV

Experiments:
[1] = biological target: T1, F-actin (rabbit skeletal α-actin, polymerized) (rabbit, UniProt P68135 1-377); assay: ADP-F-actin
[2] = biological target: T2, bovine brain Arp2/3 complex (bovine, UniProt P61157 1-418; A7MB62 1-394; Q58CQ2 1-372; Q3MHR7 1-300; Q3T035 1-178; Q148J6 …); assay: ITC; ADP-bound Arp2/3 complex
[3] = biological target: T2, bovine brain Arp2/3 complex; assay: ITC; ATP-bound Arp2/3 complex
[4] = biological target: T1, F-actin (rabbit skeletal α-actin, …); assay: ADP-BeF3- F-actin
[5] = biological target: T1, F-actin (rabbit skeletal α-actin, …); assay: ADP-F-actin (- BeF3-)

Binder	Kd [1]	further results
B1	11 µM	–
B2	5.2 µM	–
B3	–	Kd [2]: 0.9 µM; Kd [3]: 1.9 µM
B4	9.9 µM	Kd [4]: 37.4 µM; Kd [5]: 9.9 µM
B5	5.5 µM	–
